The record followed here is patent publication US20220146535A1.

Test [1] concerns the target recombinant hTau-pT217 protein having the amino acid sequence of SEQ ID NO: 1 (human) (UniProt P10636). Nature of the test: BLI (Octet Red96), antibody captured on Protein A biosensor, hTau-pT217 0.4115-300 nM in solution, 1:1 fit, 25 C. Background: Biolayer interferometry detects binding as a change in optical thickness at a sensor tip.
Test [2] deals with N-terminal biotin labeled peptide of SEQ ID NO. 26 with phosphorylated threonine at residue 7 (human). Description: BLI (Octet Red96), biotinylated peptide on streptavidin biosensor, IgG at 5 ug/mL, 300 s association and 300 s dissociation.
In test [3] the target is T1, N-terminal biotin labeled peptide of SEQ ID NO. 26 without phosphorylated threonine at residue 7 (human).
T1 sequence (peptide, N-terminal biotin; threonine at residue 7 not phosphorylated): RTPSLPTPPTR
The description is as above.

The target in test [4] is recombinant hTau-pT217 protein having the amino acid sequence of SEQ ID NO: 1 (human) (UniProt P10636). Nature of the test: BLI (Octet Red96), antibody captured on Protein A biosensor, hTau-pT217 in solution, 1:1 fit, 25 C; column head prints (M^-1s^-1 units), paragraph 52 says s^-1.
The target is the same in test [5]. Nature of the test: BLI (Octet Red96), antibody captured on Protein A biosensor, hTau-pT217 in solution, KD=koff/kon; column head prints (nM), paragraph 52 says molar units; not normalized for avidity.

Chain of UniProt P10636 (P10636 other isoform, or with tags, fused parts or gaps limits assumed): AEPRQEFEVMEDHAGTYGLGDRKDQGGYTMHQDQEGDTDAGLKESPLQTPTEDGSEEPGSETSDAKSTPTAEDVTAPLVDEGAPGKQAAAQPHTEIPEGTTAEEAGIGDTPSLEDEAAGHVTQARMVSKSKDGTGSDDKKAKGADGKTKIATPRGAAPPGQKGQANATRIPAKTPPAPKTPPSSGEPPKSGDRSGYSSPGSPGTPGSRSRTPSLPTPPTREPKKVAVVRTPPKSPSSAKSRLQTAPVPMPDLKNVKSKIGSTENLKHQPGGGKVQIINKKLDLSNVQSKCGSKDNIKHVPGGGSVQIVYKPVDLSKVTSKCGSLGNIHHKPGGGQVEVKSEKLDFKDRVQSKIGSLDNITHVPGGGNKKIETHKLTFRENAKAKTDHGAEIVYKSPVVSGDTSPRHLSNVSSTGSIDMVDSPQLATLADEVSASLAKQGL

B1: mAb A, exemplified rabbit anti-hTau-pT217 antibody (antibody)
heavy: QSVEESGGRLVTPGTPLTLTCTVSGLSPSWYGVHWVRQAPGKGLEWIGVLRAGSHTYYAGWAKGRFAISKTSTTVALKITSPTTEDTAIYFCGSVGRGIWGPGTLVTVSLGQPKAPSVFPLAPCCGDTPSSTVTLGCLVKGYLPEPVTVTWNSGTLTNGVRTFPSVRQSSGLYSLSSVVSVTSSSQPVTCNVAHPATNTKVDKTVAPSTCSKPTCPPPELLGGPSVFIFPPKPKDTLMISRTPEVTCVVVDVSQDDPEVQFTWYINNEQVRTARPPLREQQFNSTIRVVSTLPIAHQDWLRGKEFKCKVHNKALPAPIEKTISKARGQPLEPKVYTMGPPREELSSRSVSLTCMINGFYPSDISVEWEKNGKAEDNYKTTPAVLDSDGSYFLYSKLSVPTSEWQRGDVFTCSVMHEALHNHYTQKSISRSPGK
light: AQVLTQTASPVSATVGGTVTINCQASLAVYNNNYLAWYQQKPGQPPKRLIYLASSLSSGVSSHFKGSGSGTQFTLTISDVQADDAATYFCQGSYDCTIADCVAFGGGTEVVVKGDPVAPTVLIFPPAADQVATGTVTIVCVANKYFPDVTVTWEVDGTTQTTGIENSKTPQNSADNTYNLSSTLTLTSTQYNSHKEYTCKVTQGTTSVVQSFNRGDC
B1: in test [1], the kon was found to be 339000 M⁻¹ s⁻¹. The values for the binding signal at the end of dissociation in test [2] and in test [3] were 4.42 nm and -0.0024 nm, respectively. Further, the koff in test [4] was found to be 0.000236 s⁻¹. Also, the Kd in test [5] came to 0.695 nM.

For orientation: kon means the rate constant with which the complex forms. One may read the koff as a measure of how fast the partners let go of each other.
